Results published in US10829756B2, “Discovery of enzymes from the alpha-keto acid decarboxylase family” (priority 2015, dated 2020).

What was measured:
Assay in all cases: Steady-state kinetics of 2-ketoacid decarboxylase (ADH/NADH coupled)
Details in all cases: other: pH 7.5, 21° C.
[1] = substrate: CCCCCCC(=O)C(=O)O; assay type: biochemical, Lactococcus lactis
Description: (§1) For the native KIVD and KIVD_VLV mutant, 2 ml overnight cultures of XL1B cells were transformed with pQE9 containing N-terminal his-tagged KIVD enzymes and grown in Terrific Broth (BP biomedical, Cat#3046-042) with 50 μg/mL of carbenicillin. (Fisher scientific, Cat# BP2648-5) For the GEOs, 2 ml overnight cultures of BLR cells were transformed with pet29b+ plasmid containing N-terminal his-tagged GEOs, and grown in Terrific Broth with 50 μg/mL of kanamycin. (Fisher scientific, Cat# BP906-5) These cultures were diluted 1:1000 in 500 mL of Terrific Broth with 1 mM MgSO4, 1% glucose, and 50ug/mL of corresponding antibiotics, then grown at 37° C. for 24 hours. Cultures were pelleted down at 4700 rpm for 10 mins and resuspended in auto-induction media (LB broth, 1 mM MgSO4, 0.1 mM TPP, 1×NPS, and 1×5052) for induction at 18° C. for 34 hours. At the end of induction, cells were centrifuged (4700 rpm, 4° C., 20 minutes), supernatant was removed, and cells were resuspended in 40 mL lysis buffer (100 mM Hepes pH 7.5, 100 mM NaCl, 10% glycerol, 0.1 mM TPP, 1 mM MgSO4, 10 mM Imidazole, 1 mM TCEP) and 1 mM PMSF) and sonicated for 2 minutes. Lysed cells were centrifuged at 4700 rpm at 4° C. for 60 mins to remove cell debris. Supernatant was loaded on gravity flow column with 700 μl of cobalt slurry (Fisher scientific, CAT# PI-90091) washed with 10 ml of wash buffer (100 mM Hepes pH 7.5, 100 mM NaCl, 10% glycerol, 0.1 mM TPP, 1 mM MgSO4, 10 mM Imidazole, and 1 mM TCEP). Cobalt bead bed was washed with 15 ml of wash buffer 5 times and proteins were eluted with 1000 μl of elution buffer (100 mM Hepes pH 7.5, 100 mM NaCl, 10% glycerol, 0.1 mM TPP, 1 mM MgSO4, 200 mM Imidazole, and 1 mM TCEP). Protein samples were immediately buffer exchanged with spin concentrators (Satorius, CAT# VS0112) into storage buffer (100 mM Hepes pH 7.5, 100 mM NaCl, 10% glycerol, 0.1 mM TPP, 1 mM MgSO4, and 1 mM TCEP) and stored at 4° C. until kinetics characterization. Protein concentrations were determined using a Synergy H1 spectrophotometer (Biotek) by measuring absorbance at 280 nm using their calculated extinction coefficients with ExPASy ProtParam Tool.^33 All other buffers and salts were purchased from Fisher Scientific unless otherwise specified.
(§2) The kcat and KM values of selective KIVD mutants were measured for the substrates: C3, C5, isoC5, and C8. All substrates were dissolved in MilliQ H2O and pH was adjusted to 7.5 as necessary. Activity was measured at 0.005 mM to 10 mM substrates. The assay was performed in a 96-well half-area plate. Each reaction contains a final concentration of 0.5 mM NADH, 1 mM DTT, 0.1 mM TPP, 1 mM MgSO4, reaction buffer (100 mM Hepes, 100 mM NaCl, 10% glycerol, pH 7.5) and ADH (Sigma Aldrich, A7011, 10 U/ml for C3, C5 and C8 reactions, 500 U/ml for isoC5 reactions). A wide range of ketoacid decarboxylase concentrations, 4.5 nM-15 μM, were used according to the activity of each enzyme toward different substrates in order to perform steady state kinetics measurement over a period of an hour. Absorbance readings were taken every 1-minute at OD340 at 21° C. for 60 minutes using the Synergy H1. Kinetic parameters (kcat and KM) were determined by fitting initial velocity versus substrate concentration data to the Michaelis-Menten equation.

[2] = substrate: CCCC(=O)C(=O)O; assay type: biochemical, Lactococcus lactis
Description: as §1, §2

[3] = substrate: CC(C)C(=O)C(=O)O; assay type: biochemical, Lactococcus lactis
Description: as §1, §2

[4] = substrate: CC(C)C(=O)C(=O)O; assay type: biochemical
Text: (§3) To evaluate if the integrative genomic mining approach enriches the mining for C8 activity, an additional set of previously characterized ketoacid decarboxylases diverse in sequence were experimentally characterized in an equivalent manner. […] The median C8 activity from the GEOs selected using the integrative genomic mining approach is 75-fold higher than the naively picked decarboxylases (Table 1, FIG. 4). This indicates the integrative genomic mining approach is effective in identifying functional enzymes that perform the desired reaction on C8.
For the native KIVD and KIVD_VLV mutant, 2 ml overnight cultures of XL1B cells were transformed with pQE9 containing N-terminal his-tagged KIVD enzymes and grown in Terrific Broth (BP biomedical, Cat#3046-042) with 50 μg/mL of carbenicillin. […] Protein concentrations were determined using a Synergy H1 spectrophotometer (Biotek) by measuring absorbance at 280 nm using their calculated extinction coefficients with ExPASy ProtParam Tool.^33 All other buffers and salts were purchased from Fisher Scientific unless otherwise specified.
The kcat and KM values of selective KIVD mutants were measured for the substrates: C3, C5, isoC5, and C8. […] Activity was measured at 0.005 mM to 10 mM substrates. […] Absorbance readings were taken every 1-minute at OD340 at 21° C. for 60 minutes using the Synergy H1. […]

[5] = substrate: CCCCCCC(=O)C(=O)O; assay type: biochemical
Text: (§4) FIG. 17: Depicts protein sequences of various 2-ketoacid decarboxylases (SEQ ID NOS:20-34). Protein Sequence 3FZN is SEQ ID NO: 20. Protein sequence 2VBI is SEQ ID NO: 21. Protein sequence 1ZPD is SEQ ID NO: 22. Protein sequence ZP_08570611 is SEQ ID NO: 23. Protein sequence YP_831380 is SEQ ID NO: 24. Protein sequence ZP_06547677 is SEQ ID NO: 25. Protein sequence 1OVM_P23234 is SEQ ID NO: 26. Protein sequence ZP_06418208 is SEQ ID NO: 27. Protein sequence ZP_07290467 is SEQ ID NO: 28. Protein sequence 2VBG is SEQ ID NO: 29. Protein sequence CAK95977 is SEQ ID NO: 30. Protein sequence ZP_07282849 is SEQ ID NO: 31. Protein sequence ZP_06846103 is SEQ ID NO: 32. Protein sequence ZP_04996569 is SEQ ID NO: 33. Protein sequence YP_381143 is SEQ ID NO: 34.
as §3, §1
(§5) The kcat and KM values of selective KIVD mutants were measured for the substrates: C3, C5, isoC5, and C8. All substrates were dissolved in MilliQ H2O and pH was adjusted to 7.5 as necessary. Activity was measured at 0.005 mM to 10 mM substrates. The assay was performed in a 96-well half-area plate. […]

[6] = substrate: CCCC(=O)C(=O)O; assay type: biochemical
Text: as §4, §3, §1, §5

[7] = substrate: CC(=O)C(=O)O; assay type: biochemical
Text: as §4, §3, §1, §5

[8] = substrate: CC(C)C(=O)C(=O)O; assay type: biochemical; remark: listed apart in the source
Text: as §4, §3, §1, §5

B1: Native KIVD (ketoisovalerate decarboxylase), wild type, SEQ ID NO:1 (Lactococcus lactis subsp. lactis) (protein)
chain: MYTVGDYLLDRLHELGIEEIFGVPGDYNLQFLDQIISRKDMKWVGNANELNASYMADGYARTKKAAAFLTTFGVGELSAVNGLAGSYAENLPVVEIVGSPTSKVQNEGKFVHHTLADGDFKHFMKMHEPVTAARTLLTAENATVEIDRVLSALLKERKPVYINLPVDVAAAKAEKPSLPLKKENSTSNTSDQEILNKIQESLKNAKKPIVITGHEIISFGLEKTVSQFISKTKLPITTLNFGKSSVDEALPSFLGIYNGKLSEPNLKEFVESADFILMLGVKLTDSSTGAFTHHLNENKMISLNIDEGKIFNESIQNFDFESLISSLLDLSEIEYKGKYIDKKQEDFVPSNALLSQDRLWQAVENLTQSNETIVAEQGTSFFGASSIFLKPKSHFIGQPLWGSIGYTFPAALGSQIADKESRHLLFIGDGSLQLTVQELGLAIREKINPICFIINNDGYTVEREIHGPNQSYNDIPMWNYSKLPESFGATEERVVSKIVRTENEFVSVMKEAQADPNRMYWIELILAKEDAPKVLKKMGKLFAEQNKS
[1]
  Km: 0.21 ± 0.04 mM
  kcat: 7 ± 0.3 s⁻¹
[2]
  Km: 1.5 ± 0.1 mM
  kcat: 14.3 ± 0.2 s⁻¹
[3]
  Km: 4.5 ± 0.3 mM
  kcat: 61 ± 2.1 s⁻¹

B2: 1OZF, ketoacid decarboxylase (Klebsiella pneumoniae) (protein)
chain: MDKQYPVRQWAHGADLVVSQLEAQGVRQVFGIPGAKIDKVFDSLLDSSIRIIPVRHEANAAFMAAAVGRITGKAGVALVTSGPGCSNLITGMATANSEGDPVVALGGAVKRADKAKQVHQSMDTVAMFSPVTKYAIEVTAPDALAEVVSNAFRAAEQGRPGSAFVSLPQDVVDGPVSGKVLPASGAPQMGAAPDDAIDQVAKLIAQAKNPIFLLGLMASQPENSKALRRLLETSHIPVTSTYQAAGAVNQDNFSRFAGRVGLFNNQAGDRLLQLADLVICIGYSPVEYEPAMWNSGNATLVHIDVLPAYEERNYTPDVELVGDIAGTLNKLAQNIDHRLVLSPQAAEILRDRQHQRELLDRRGAQLNQFALHPLRIVRAMQDIVNSDVTLTVDMGSFHIWIARYLYTFRARQVMISNGQQTMGVALPWAIGAWLVNPERKVVSVSGDGGFLQSSMELETAVRLKANVLHLIWVDNGYNMVAIQEEKKYQRLSGVEFGPMDFKAYAESFGAKGFAVESAEALEPTLRAAMDVDGPAVVAIPVDYRDNPLLMGQLHLSQIL
[4]
  Km: 1.8 ± 0.1 mM
  kcat: 0.03 ± 0.001 s⁻¹

B3: 1ZPD, ketoacid decarboxylase, SEQ ID NO: 22 (Zymomonas mobilis subsp. mobilis ZM4 = ATCC 31821) (protein)
chain: MSYTVGTYLAERLVQIGLKHHFAVAGDYNLVLLDNLLLNKNMEQVYCCNELNCGFSAEGYARAKGAAAAVVTYSVGALSAFDAIGGAYAENLPVILISGAPNNNDHAAGHVLHHALGKTDYHYQLEMAKNITAAAEAIYTPEEAPAKIDHVIKTALREKKPVYLEIACNIASMPCAAPGPASALFNDEASDEASLNAAVDETLKFIANRDKVAVLVGSKLRAAGAEEAAVKFTDALGGAVATMAAAKSFFPEENALYIGTSWGEVSYPGVEKTMKEADAVIALAPVFNDYSTTGWTDIPDPKKLVLAEPRSVVVNGIRFPSVHLKDYLTRLAQKVSKKTGSLDFFKSLNAGELKKAAPADPSAPLVNAEIARQVEALLTPNTTVIAETGDSWFNAQRMKLPNGARVEYEMQWGHIGWSVPAAFGYAVGAPERRNILMVGDGSFQLTAQEVAQMVRLKLPVIIFLINNYGYTIEVMIHDGPYNNIKNWDYAGLMEVFNGNGGYDSGAAKGLKAKTGGELAEAIKVALANTDGPTLIECFIGREDCTEELVKWGKRVAAANSRKPVNKVVGSTENLYFQSGALE
[5]
  Km: 1.2 ± 0.1 mM
  kcat: 0.021 ± 0.001 s⁻¹
  kcat/Km: 19 ± 2 M⁻¹ s⁻¹
[6]
  Km: 7.1 ± 0.3 mM
  kcat: 0.95 ± 0.02 s⁻¹
  kcat/Km: 140 ± 5.6 M⁻¹ s⁻¹
[7]
  Km: 5.7 ± 0.3 mM
  kcat: 46.7 ± 1.4 s⁻¹
  kcat/Km: 8200 ± 545 M⁻¹ s⁻¹

B4: 3FZN, ketoacid decarboxylase, SEQ ID NO: 20 (Pseudomonas putida) (protein)
chain: MASVHGTTYELLRRQGIDTVFGNPGSNELPFLKDFPEDFRYILALQEACVVGIADGYAQASRKPAFINLHSAAGTGNAMGALSNAWNSHSPLIVTAGQQTRAMIGVEALLTNVDAANLPRPLVKWSYEPASAAEVPHAMSRAIHMASMAPQGPVYLSVPYDDWDKDADPQSHHLFDRHVSSSVRLNDQDLDILVKALNSASNPAIVLGPDVDAANANADCVMLAERLKAPVWVAPSAPRCPFPTRHPCFRGLMPAGIAAISQLLEGHDVVLVIGAPVFRYHQYDPGQYLKPGTRLISVTCDPLEAARAPMGDAIVADIGAMASALANLVEESSRQLPTAAPEPAKVDQDAGRLHPETVFDTLNDMAPENAIYLNESTSTTAQMWQRLNMRNPGSYYFCAAGGLGFALPAAIGVQLAEPERQVIAVIGDGSANYSISALWTAAQYNIPTIFVIMNNGTYGALRWFAGVLEAENVPGLDVPGIDFRALAKGYGVQALKADNLEQLKGSLQEALSAKGPVLIEVSTVSPVKGSTENLYFQSGALE
[5]
  Km: 3.8 ± 0.3 mM
  kcat: 1.3 ± 0.1 s⁻¹
[6]
  Km: 2.7 ± 0.2 mM
  kcat: 4.7 ± 0.1 s⁻¹
[8]
  Km: 4.9 ± 0.3 mM
  kcat: 0.52 ± 0.02 s⁻¹
